# T1: Human CD3 epsilon-delta (human)
# T1 construct: Single-chain epsilon-linker-delta with His6; also called huCD3
# T1 chain: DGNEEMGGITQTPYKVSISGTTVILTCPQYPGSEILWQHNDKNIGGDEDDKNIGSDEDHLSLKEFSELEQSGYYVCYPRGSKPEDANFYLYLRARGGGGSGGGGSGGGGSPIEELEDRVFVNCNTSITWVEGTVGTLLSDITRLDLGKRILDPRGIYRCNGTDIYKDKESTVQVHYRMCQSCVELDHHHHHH
# Key:
# [1] = molecular target: Human CD3 on naive human T cells (human, UniProt P07766 23-207); assay: cell-based or functional assay
# Human CD3 epsilon-delta = molecular target: T1, Human CD3 epsilon-delta; assay: SPR, recombinant human CD3
# Human GUCY2C ECD-muIgG2a = molecular target: T2, Human GUCY2C ECD-muIgG2a (human); assay: huCD3-huGUCY2C sandwich ELISA (CD3 coated)
# T2 construct: also called human GUCY2c ECD-mouse IgG2a Fc fusion protein; huGUCY2c-mIgG2a
# T2 sequence (chain, as listed by the source limits assumed): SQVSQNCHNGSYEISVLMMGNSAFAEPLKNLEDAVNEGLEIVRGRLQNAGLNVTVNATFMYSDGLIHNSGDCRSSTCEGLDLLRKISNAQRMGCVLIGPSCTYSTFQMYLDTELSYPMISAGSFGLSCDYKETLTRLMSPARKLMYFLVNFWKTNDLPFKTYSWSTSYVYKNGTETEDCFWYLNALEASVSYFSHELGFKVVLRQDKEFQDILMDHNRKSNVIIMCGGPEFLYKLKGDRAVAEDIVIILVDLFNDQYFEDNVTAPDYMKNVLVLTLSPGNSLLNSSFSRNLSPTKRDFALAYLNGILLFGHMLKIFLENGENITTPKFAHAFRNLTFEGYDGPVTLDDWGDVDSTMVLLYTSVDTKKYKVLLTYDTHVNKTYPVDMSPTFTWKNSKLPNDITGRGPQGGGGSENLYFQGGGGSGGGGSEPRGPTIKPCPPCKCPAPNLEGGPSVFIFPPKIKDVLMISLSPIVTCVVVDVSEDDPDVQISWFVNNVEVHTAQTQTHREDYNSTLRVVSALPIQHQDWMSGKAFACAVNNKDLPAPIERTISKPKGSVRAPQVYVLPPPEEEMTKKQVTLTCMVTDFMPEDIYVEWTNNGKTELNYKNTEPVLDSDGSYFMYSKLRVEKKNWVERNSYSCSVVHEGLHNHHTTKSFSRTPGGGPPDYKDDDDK
# Description: To test bispecific binding to both GUCY2c and CD3, a sandwich ELISA was performed. […] Plates were washed 3× with PBS+0.05% TWEEN20 and blocked with PBS+3% milk for 1 hr, shaking at RT. Blocking solution was removed and samples serially diluted in block were added and incubated for 1 hr shaking at RT. Plates were washed 3x as before and purified human, cynomolgus or murine GUCY2c ECD-mouse IgG2a Fc fusion protein was added to the plate at 1 μg/ml and incubated at RT, shaking for 1 hr. Plates were washed 3× as before and a secondary antibody was added (goat anti-mouse IgG Fc-HRP—Thermo Scientific, diluted 1:4,000), followed by shaking for 1 hr at RT. Plates were washed as before and signal was developed using TMB, the reaction stopped with H2SO4 and the absorbance read at 450 nm on an EnVision® plate reader (Perkin Elmer). An alternative detection method was also periodically employed in place of TMB/H2SO4.
Binder,"In vitro Cytotoxicity (nM), T-cell retargeting assay [1]",Kd (Human CD3 epsilon-delta),EC50 (Human GUCY2C ECD-muIgG2a)
GUCY2C-1679 (bispecific antibody) chain 1: DIQLTQSPSSLSASVGDRVTITCRASESVDYYGSSLLQWYQQKPGKAPKLLIYAASKLASGVPSRFSGSGSGTDFTLTISSLQPEDFATYYCQQTRKAYTFGQGTKLEIKGGGSGGGGEVQLVESGGGLVQPGGSLRLSCAASGFTFSDYYMTWVRQAPGKGLEWVAFIRNQARGYTSDHNPSVKGRFTISRDNAKNSLYLQMNSLRAEDTAVYYCARDRPSYYVLDYWGQGTTVTVSSGCPPCPAPEAAGAPSVFLFPPKPKDTLMISRTPEVTCVVVDVSHEDPEVKFNWYVDGVEVHNAKTKPREEQYNSTYRVVSVLTVLHQDWLNGKEYKCKVSNKALPAPIEKTISKAKGQPREPQVCTLPPSREEMTKNQVSLWCLVKGFYPSDIAVEWESNGQPENNYKTTPPVLDSDGSFFLYSKLTVDKSRWQQGNVFSCSVMHEALHNHYTQKSLSLSPG chain 2: DIQMTQSPSSLSASVGDRVTITCTSSQSLFNVRSGKNYLAWYQQKPGKAPKLLIYWASDRESGVPSRFSGSGSGTDFTLTISSLQPEDFATYYCKQSYDLFTFGGGTKVEIKGGGGSGGGGEVQLVESGGGLVQPGGSLRLSCAASGFTFSSYWMHWVRQAPGKGLEWIGEIKPSNELTNVHEKFKDRFTISVDKAKNSAYLQMNSLRAEDTAVYYCTRTITTTEGYWFFDVWGQGTLVTVSSGCPPCPAPEAAGAPSVFLFPPKPKDTLMISRTPEVTCVVVDVSHEDPEVKFNWYVDGVEVHNAKTKPREEQYNSTYRVVSVLTVLHQDWLNGKEYKCKVSNKALPAPIEKTISKAKGQPREPQVYTLPPCREEMTKNQVSLSCAVKGFYPSDIAVEWESNGQPENNYKTTPPVLDSDGSFFLVSKLTVDKSRWQQGNVFSCSVMHEALHNHYTQKSLSLSPG,0.194 nM,72 nM,–
GUCY2C-1678 (bispecific antibody) chain 1: DIQLTQSPSSLSASVGDRVTITCRASESVDYYGSSLLQWYQQKPGKAPKLLIYAASKLASGVPSRFSGSGSGTDFTLTISSLQPEDFATYYCQQTRKAYTFGQGTKLEIKGGGSGGGGEVQLVESGGGLVQPGGSLRLSCAASGFTFSDYYMTWVRQAPGKGLEWVAFIRNQARGYTSDHNPSVKGRFTISRDNAKNSLYLQMNSLRAEDTAVYYCARDRPSYYVLDYWGQGTTVTVSSGCPPCPAPEAAGAPSVFLFPPKPKDTLMISRTPEVTCVVVDVSHEDPEVKFNWYVDGVEVHNAKTKPREEQYNSTYRVVSVLTVLHQDWLNGKEYKCKVSNKALPAPIEKTISKAKGQPREPQVCTLPPSREEMTKNQVSLWCLVKGFYPSDIAVEWESNGQPENNYKTTPPVLDSDGSFFLYSKLTVDKSRWQQGNVFSCSVMHEALHNHYTQKSLSLSPG chain 2: DIQMTQSPSSLSASVGDRVTITCTSDQSLFNVRSGKNYLAWYQQKPGKAPKLLIYWASDRESGVPSRFSGSGSGTDFTLTISSLQPEDFATYYCKQSYDLFTFGGGTKVEIKGGGGSGGGGEVQLVESGGGLVQPGGSLRLSCAASGFTFSSYWMHWVRQAPGKGLEWIGEIKPSNELTNVHEKFKDRFTISVDKAKNSAYLQMNSLRAEDTAVYYCTRTITTTEGYWFFDVWGQGTLVTVSSGCPPCPAPEAAGAPSVFLFPPKPKDTLMISRTPEVTCVVVDVSHEDPEVKFNWYVDGVEVHNAKTKPREEQYNSTYRVVSVLTVLHQDWLNGKEYKCKVSNKALPAPIEKTISKAKGQPREPQVYTLPPCREEMTKNQVSLSCAVKGFYPSDIAVEWESNGQPENNYKTTPPVLDSDGSFFLVSKLTVDKSRWQQGNVFSCSVMHEALHNHYTQKSLSLSPG,0.247 nM,63.5 nM,–
GUCY2C-1680 (bispecific antibody) chain 1: DIQLTQSPSSLSASVGDRVTITCRASESVDYYGSSLLQWYQQKPGKAPKLLIYAASKLASGVPSRFSGSGSGTDFTLTISSLQPEDFATYYCQQTRKAYTFGQGTKLEIKGGGSGGGGEVQLVESGGGLVQPGGSLRLSCAASGFTFSDYYMTWVRQAPGKGLEWVAFIRNQARGYTSDHNPSVKGRFTISRDNAKNSLYLQMNSLRAEDTAVYYCARDRPSYYVLDYWGQGTTVTVSSGCPPCPAPEAAGAPSVFLFPPKPKDTLMISRTPEVTCVVVDVSHEDPEVKFNWYVDGVEVHNAKTKPREEQYNSTYRVVSVLTVLHQDWLNGKEYKCKVSNKALPAPIEKTISKAKGQPREPQVCTLPPSREEMTKNQVSLWCLVKGFYPSDIAVEWESNGQPENNYKTTPPVLDSDGSFFLYSKLTVDKSRWQQGNVFSCSVMHEALHNHYTQKSLSLSPG chain 2: DIQMTQSPSSLSASVGDRVTITCTSSESLFNVRSGKNYLAWYQQKPGKAPKLLIYWASDRESGVPSRFSGSGSGTDFTLTISSLQPEDFATYYCKQSYDLFTFGGGTKVEIKGGGGSGGGGEVQLVESGGGLVQPGGSLRLSCAASGFTFSSYWMHWVRQAPGKGLEWIGEIKPSNELTNVHEKFKDRFTISVDKAKNSAYLQMNSLRAEDTAVYYCTRTITTTEGYWFFDVWGQGTLVTVSSGCPPCPAPEAAGAPSVFLFPPKPKDTLMISRTPEVTCVVVDVSHEDPEVKFNWYVDGVEVHNAKTKPREEQYNSTYRVVSVLTVLHQDWLNGKEYKCKVSNKALPAPIEKTISKAKGQPREPQVYTLPPCREEMTKNQVSLSCAVKGFYPSDIAVEWESNGQPENNYKTTPPVLDSDGSFFLVSKLTVDKSRWQQGNVFSCSVMHEALHNHYTQKSLSLSPG,0.385 nM,78.6 nM,–
GUCY2C-0250 (bispecific antibody) chain 1: DIQLTQSPSSLSASVGDRVTITCRASESVDYYGTSLMQWYQQKPGKAPKLLIYAASNVESGVPSRFSGSGSGTDFTLTISSLQPEDFATYYCQQTRKVYTFGQGTKLEIKGGGSGGGGEVQLVESGGGLVQPGGSLRLSCAASGFTFSDYYMTWVRQAPGKGLEWVAFIRNRARGYTSDHNPSVKGRFTISRDNAKNSLYLQMNSLRAEDTAVYYCARDRPSYYVLDYWGQGTTVTVSSGCPPCPAPEAAGAPSVFLFPPKPKDTLMISRTPEVTCVVVDVSHEDPEVKFNWYVDGVEVHNAKTKPREEQYNSTYRVVSVLTVLHQDWLNGKEYKCKVSNKALPAPIEKTISKAKGQPREPQVCTLPPSREEMTKNQVSLWCLVKGFYPSDIAVEWESNGQPENNYKTTPPVLDSDGSFFLYSKLTVDKSRWQQGNVFSCSVMHEALHNHYTQKSLSLSPG chain 2: DIQMTQSPSSLSASVGDRVTITCTSSQSLFNVRSRKNYLAWYQQKPGKAPKLLIYWASTRESGVPSRFSGSGSGTDFTLTISSLQPEDFATYYCKQSYDLFTFGGGTKVEIKGGGSGGGGEVQLVESGGGLVQPGGSLRLSCAASGYTFTSYWMHWVRQAPGKGLEWIGEIKPSNGLTNYIEKFKNRFTISVDKAKNSAYLQMNSLRAEDTAVYYCTRTITTTEGYWFFDVWGQGTLVTVSSGCPPCPAPEAAGAPSVFLFPPKPKDTLMISRTPEVTCVVVDVSHEDPEVKFNWYVDGVEVHNAKTKPREEQYNSTYRVVSVLTVLHQDWLNGKEYKCKVSNKALPAPIEKTISKAKGQPREPQVYTLPPCREEMTKNQVSLSCAVKGFYPSDIAVEWESNGQPENNYKTTPPVLDSDGSFFLVSKLTVDKSRWQQGNVFSCSVMHEALHNHYTQKSLSLSPG,–,–,76.9 nM
